Laboratory results taken from the Immune Epitope Database (IEDB).

How the values were obtained:
HLA-B*07:02 = experiment: IEDB peptide-MHC binding, purified MHC/direct/fluorescence; filed as Kd, often an IC50 or EC50 that approximates it; ≥ and ≤ were set here for values at or beyond the usual limits of such assays
HLA-A*01:01 [1] = experiment: as above
HLA-A*02:01 [2] = experiment: IEDB peptide-MHC binding, purified MHC/competitive/fluorescence; ≥ and ≤ were set here for values at or beyond the usual limits of such assays
HLA-A*24:02 = experiment: IEDB peptide-MHC binding, purified MHC/competitive/radioactivity; filed as Kd, often an IC50 or EC50 that approximates it; ≥ and ≤ were set here for values at or beyond the usual limits of such assays
HLA-A*01:01 [3] = experiment: as above; conditions: source organism: Mammarenavirus brazilense
HLA-A*26:01 = experiment: as above
HLA-B*51:01 = experiment: as above
HLA-B*58:01 = experiment: IEDB peptide-MHC binding, purified MHC/direct/fluorescence; filed as Kd, often an IC50 or EC50 that approximates it; ≥ and ≤ were set here for values at or beyond the usual limits of such assays
HLA-B*27:05 = experiment: as above
HLA-A*11:01 = experiment: as above; conditions: source organism: SARS-CoV1
HLA-B*46:01 = experiment: as above; conditions: source organism: Yellow fever virus
HLA-B*53:01 = experiment: IEDB peptide-MHC binding, purified MHC/competitive/radioactivity; filed as Kd, often an IC50 or EC50 that approximates it; ≥ and ≤ were set here for values at or beyond the usual limits of such assays
HLA-A*69:01 = experiment: IEDB peptide-MHC binding, purified MHC/direct/fluorescence; filed as Kd, often an IC50 or EC50 that approximates it; ≥ and ≤ were set here for values at or beyond the usual limits of such assays
HLA-A*02:01 [4] = experiment: as above
HLA-B*15:01 = experiment: as above
HLA-A*30:02 = experiment: IEDB peptide-MHC binding, purified MHC/competitive/radioactivity; filed as Kd, often an IC50 or EC50 that approximates it; ≥ and ≤ were set here for values at or beyond the usual limits of such assays
HLA-A*02:06 = experiment: as above
HLA-A*02:02 = experiment: as above
HLA-A*02:03 = experiment: as above
[5] = source organism: Sudan ebolavirus
[6] = source organism: Dengue virus 1 Brazil/97-11/1997
[7] = source organism: Dengue virus 2 Jamaica/1409/1983
[8] = source organism: Dengue virus 3 Martinique/1243/1999
[9] = source organism: Zaire ebolavirus
[10] = source organism: Dengue virus 4 Dominica/814669/1981
[11] = source organism: Mycobacterium tuberculosis
[12] = source organism: Human betaherpesvirus 6B
[13] = source organism: Bacillus anthracis
[14] = source organism: Haemophilus influenzae
[15] = source organism: Dengue virus 4 Philippines/H241/1956
[16] = source organism: SARS coronavirus Tor2
[17] = source organism: Vaccinia virus WR
[18] = source organism: Entamoeba histolytica

Sequence: APRTLVLLL
- Kd (HLA-B*07:02; source organism: Homo sapiens): 145 nM

Sequence: ASLLRRWPK
- Kd (HLA-A*01:01 [1]; source organism: Vibrio cholerae): ≥ 20 µM

Sequence: ASTVIYRGV
- IC50 (HLA-A*02:01 [2]; [5]): 7.44 µM

Sequence: DFPGKTVWF
- Kd (HLA-A*24:02; [6]): 8.8 µM

Sequence: DPKRYFVPIF
- Kd (HLA-A*01:01 [3]): ≥ 70.4 µM
- Kd (HLA-A*26:01; source organism: Mammarenavirus brazilense): ≥ 69700 nM

Sequence: ELCEDTITY
- Kd (HLA-A*26:01; [7]): 754 nM

Sequence: EPPFGESNI
- Kd (HLA-B*51:01; [8]): 11200 nM

Sequence: ERSDKSYEH
- Kd (HLA-B*58:01; source organism: SARS-CoV1): 1840 nM
- Kd (HLA-B*27:05; source organism: SARS-CoV1): 8.45 µM
- Kd (HLA-A*11:01): 16.8 µM

Sequence: ETLLLLGLMI
- Kd (HLA-A*26:01; [8]): ≥ 54400 nM

Sequence: FDFCEGTTVV
- Kd (HLA-B*51:01; [7]): 2650 nM

Sequence: FMAILQHHQ
- IC50 (HLA-A*02:01 [2]; [9]): 1.08 µM

Sequence: FTPEARNSTF
- Kd (HLA-A*24:02; [10]): 4.15 µM
- Kd (HLA-A*26:01; [10]): 518 nM

Sequence: GGFSTLDKI
- IC50 (HLA-A*02:01 [2]; source organism: Variola virus): ≥ 124 µM

Sequence: GMMGGLWKY
- Kd (HLA-B*46:01): ≥ 20 µM

Sequence: GPRTRGYAI
- Kd (HLA-B*07:02; [11]): 9 nM

Sequence: GRSCTEETF
- Kd (HLA-B*27:05; source organism: Mammarenavirus juninense): ≥ 20 µM

Sequence: GTGPCAGDF
- IC50 (HLA-A*02:01 [2]; [9]): ≥ 512 µM

Sequence: IANELNYILW
- Kd (HLA-B*53:01; [8]): 79.9 nM

Sequence: ICDDVLSKY
- Kd (HLA-A*69:01; [12]): 2.69 µM
- Kd (HLA-A*01:01 [1]; [12]): 3.18 µM

Sequence: ILNGGLGNA
- Kd (HLA-A*69:01; [13]): ≥ 20 µM
- Kd (HLA-A*02:01 [4]; [13]): 317 nM

Sequence: ILYDTGSSW
- Kd (HLA-B*58:01; [14]): 92.8 nM
- Kd (HLA-B*15:01; [14]): 119 nM
- Kd (HLA-A*02:01 [4]; [14]): 10200 nM

Sequence: IPHDLMEFI
- Kd (HLA-B*51:01; [15]): 20.4 nM
- Kd (HLA-B*53:01; [15]): 6.39 nM

Sequence: ISTIGIRPS
- IC50 (HLA-A*02:01 [2]; [5]): ≥ 116 µM

Sequence: IVFATAARY
- Kd (HLA-B*15:01; [11]): 161 nM

Sequence: IWLKLRDSY
- Kd (HLA-A*30:02; [6]): 673 nM

Sequence: KIILFLTLI
- Kd (HLA-A*02:06; [16]): 24.3 nM
- Kd (HLA-A*02:02; [16]): 68.1 nM
- Kd (HLA-A*02:03; [16]): 4.94 nM

Sequence: KIMASENSS
- IC50 (HLA-A*02:01 [2]; [9]): ≥ 119 µM

Sequence: KIYTLIYRQL
- Kd (HLA-A*02:06; [17]): 912 nM
- Kd (HLA-A*02:02; [17]): 707 nM
- Kd (HLA-A*02:03; [17]): 1030 nM

Sequence: KLISEKETL
- Kd (HLA-A*02:06; [17]): 7650 nM
- Kd (HLA-A*02:02; [17]): 841 nM
- Kd (HLA-A*02:03; [17]): ≥ 24700 nM

Sequence: KLRSSPPIPM
- Kd (HLA-A*02:06; [17]): 2210 nM
- Kd (HLA-A*02:02; [17]): 57.6 nM
- Kd (HLA-A*02:03; [17]): 134 nM

Sequence: KQLESVMYL
- Kd (HLA-A*69:01; [18]): ≥ 20 µM
- Kd (HLA-A*02:01 [4]; [18]): 4.8 nM

Sequence: KQPATLRKY
- Kd (HLA-A*30:02; [7]): 416 nM
